Experiment [1] concerns the target FKBP fused to the N terminus of TRF2 ΔB (FKBP-TRF2 ΔB), Myc-tagged.
In experiment [2] the target is TRF2 (endogenous in HeLa cells) (human (endogenous in HeLa)) (UniProt Q15554). The experiment is described as follows: proximity ligation; Duolink in situ PLA in fixed HeLa cells with anti-TRF2 and anti-histone H3 antibodies; cells scored for 10 or more signals in nuclei.
UniProt Q15554, sequence (Q15554 whole entry): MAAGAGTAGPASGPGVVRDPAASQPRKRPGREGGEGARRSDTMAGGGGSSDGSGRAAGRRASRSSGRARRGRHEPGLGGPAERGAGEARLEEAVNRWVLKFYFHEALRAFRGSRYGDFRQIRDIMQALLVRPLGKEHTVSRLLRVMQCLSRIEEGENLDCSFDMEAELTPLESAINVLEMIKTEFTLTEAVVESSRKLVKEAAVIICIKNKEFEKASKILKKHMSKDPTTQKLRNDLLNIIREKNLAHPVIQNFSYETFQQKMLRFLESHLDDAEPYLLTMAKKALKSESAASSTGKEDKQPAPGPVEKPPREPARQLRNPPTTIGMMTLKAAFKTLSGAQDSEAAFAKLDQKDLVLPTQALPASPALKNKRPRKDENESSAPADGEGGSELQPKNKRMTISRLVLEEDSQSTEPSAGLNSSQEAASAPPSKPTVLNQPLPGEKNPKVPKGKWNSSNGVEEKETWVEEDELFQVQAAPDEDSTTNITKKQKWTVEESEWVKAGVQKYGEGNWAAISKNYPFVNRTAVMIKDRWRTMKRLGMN

Turning to “FRB fused to the C terminus of histone H2B (H2B-FRB), HA-tagged”, the generation of t-circles in FKBP-TRF2 ΔB-complemented MEFs expressing H2B-FRB, with A/C dimerizer for 48 h in experiment [1] was found to be 50%.

For “histone H3 (HeLa cells) (from UniProt P68431 1-136) (natural protein)”, the percent of cells with more than 10 positive Duolink signals in experiment [2] is 26 % of cells.

(Values after paper PMC5034068.)
